Measured values from publication PMC7048787, “MCL1 binding to the reverse BH3 motif of P18INK4C couples cell survival to cell proliferation” (Cell Death & Disease, 2020).
Read-outs that look alike come from different tables or passages of the source. No end group written: not given here.

Assays:
[1] = system: WAC2 cells (MCL1 overexpressed); experiment: PI DNA content flow cytometry, cell cycle population of MCL1-overexpressing WAC2 cells treated with BH3 mimetics; format: cell-based, human; conditions: PI staining, N = 3, Fig. 6a; for effect on MCL1 overexpression induced decrease in G1 population: WAC2, MCL1 plasmid, then BH3 mimetic for 18 h, final DMSO 0.5%
[2] = molecular target: T1, His6-MCL1 (human MCL1 residues 163-326) (human, UniProt Q07820 163-326); experiment: fluorescence polarisation; competition FPA: 100 nM His6-MCL1 with variable unlabeled P18 protein or peptides for 10 min at RT, then 10 nM FITC-AHX-BAK for 1 h; 1x PBS pH 7.4, 100 uL, 96-well plates
T1 construct: Named His6-MCL1 in the FPA; called rMCL1 in the pull-downs; also called His-MCL1; recombinant MCL1; source: E. coli BL21(DE3), purified (nickel column, gel filtration); not shown: His6, N-terminal, kept
Target sequence in this assay (Q07820 163-326): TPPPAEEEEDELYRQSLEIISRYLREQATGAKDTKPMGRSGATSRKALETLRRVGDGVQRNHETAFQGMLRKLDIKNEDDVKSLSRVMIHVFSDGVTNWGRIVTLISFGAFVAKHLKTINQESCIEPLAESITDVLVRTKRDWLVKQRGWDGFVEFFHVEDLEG

recombinant MCL1 (rMCL1) = experiment: In vitro pulldown of recombinant MCL1 by recombinant P18/P16 constructs; format: binding, human; conditions: for pull-down of recombinant MCL1: Western blot of in vitro pulldown, recombinant proteins (IP), rMCL1 (IB), Fig. 2b
Source text: Human MCL1 [Uniprot: Q07820] (residues 163–326), human P18 [Uniprot: P42773] (residues 1–168), A1–4 (P18 residues 1–140), A4–5 (P18 residues 106–168), P16 [Uniprot: P42771] (residues 1–156), and AC (P16 residues 1–113 and P18 residues 106–168) were sequence-optimized for bacterial expression and cloned into the restriction sites of NdeI and HindIII in a pET28a vector (EMD Millipore) to incorporate a N-terminal hexa-histidine (His6) tag and transformed into BL21(DE3) E. Coli (New England Bio Labs). Cultures were grown under kanamycin selection in Luria broth to a 600 nm optical density of 0.6 and expression was induced by addition of 1 mM isopropyl β-D-1-thiogalactopyranoside (Thermo Fisher). Cultures were harvested 3–4 h after induction by centrifugation at 4700 × g. Resulting bacterial pellets were stored at −80 °C. His6-MCL1 bacterial pellets were re-suspended (10 mL/wet g of pellet) in Buffer A (1 × PBS, pH 6.8) with the addition of 1× lysozyme (0.25 mg/mL) (Thermo Fisher) and 1 protease inhibitor tablet (Pierce #88266), sonicated, and cleared at 14,000 × g. Resulting lysate was purified on NGC FPLC (Bio-Rad Laboratories) using a 1 mL HiTrap HP nickel column (GE Healthcare) equilibrated with Buffer A. Protein was eluted with a 2 mM–1000 mM imidazole gradient. His-MCL1 containing fractions, as identified by denaturing polyacrylamide gel electrophoresis, were further purified by gel filtration in Buffer B (1× PBS, pH 6.8) on a HiPrep 16/60 Sephacryl S-100 column (GE Healthcare). Resulting protein identity was confirmed by matrix-assisted laser desorption/ionization (MALDI) mass spectrometry.
Fig. 2 MCL1 binds specifically to P18 through C-terminal rBH3. a Western blot of endogenous coIP of MCL1 (IP) with P18 (IB), BAX (IB), and P18 (IB) in WAC2. b Western blot of in vitro pulldown of recombinant proteins (IP), ANK1–4, ANK4–5, P18, p16, and chimera, with recombinant MCL1 (rMCL1) (IB). Cartoon of the p16, P18, and chimera proteins are shown below the blot. rBH3-containing helix is highlighted in yellow (Residues: 150–161). c Western blot of in vitro pulldown of recombinant P18 (IP) with rMCL1 (IB) with and without MCL1 inhibitor S63845.
P18 is a member of the INK4 protein family [P16INK4A (P16, CDKN2A), P15INK4B (P15, CDKN2B), P18INK4C (P18, CDKN2C), and P19INK4D (P19, CDKN2D)] that regulate G1/S cell cycle progression with all INK4 proteins retaining homologous CDK4/6 inhibitory function. INK4 family proteins have homologous structures containing either four or five ankyrin (ANK) repeats, a helix-turn-helix structural unit known to mediate protein-protein interactions[15],[17]. […] The rBH3 in P18 resides in its fifth ankyrin repeat (residues 141–168). […] Based on prior stability studies of ankyrin repeats within INK4 family proteins[18],[19], we designed two truncations of P18 (Supplementary Table S1). The first, P18-ANK1–4 (ANK1–4), removes the rBH3-containing fifth ankyrin repeat. The second, P18-ANK4–5 (ANK4–5), retains the rBH3 domain as well as ankyrin repeat 4 to facilitate folding.

[3] = molecular target: T1, His6-MCL1 (human MCL1 residues 163-326); experiment: pull-down; in vitro pulldown of recombinant P18, P16, truncated and chimeric proteins (IP) with recombinant MCL1 (IB); conditions: both partners purified

CC1(C)CCC(CN2CCN(c3ccc(C(=O)NS(=O)(=O)c4ccc(NCC5CCOCC5)c([N+](=O)[O-])c4)c(Oc4cnc5[nH]ccc5c4)c3)CC2)=C(c2ccc(Cl)cc2)C1 [ABT-199]
impact on sub-G1 cell population ([1]; WAC2, MCL1 overexpressed, BH3 mimetic 18 h): more significant impact on the sub-G1 cell population
effect on MCL1 overexpression induced decrease in G1 population [1]: no impact on the change in G1 population

P18 12-mer peptide (P18 rBH3) (from UniProt P42773 150-161)
IC50 [2]: 2500 nM

Cc1c(-c2c(-c3ccc(F)o3)sc3ncnc(O[C@H](Cc4ccccc4OCc4ccnn4CC(F)(F)F)C(=O)O)c23)ccc(OCCN2CCN(C)CC2)c1Cl [S63845]
effect on MCL1 overexpression induced decrease in G1 population [1]: rescued the MCL1 overexpression induced decrease in G1 population back to control levels
disruption of P18 pulldown of MCL1 (recombinant MCL1 (rMCL1); recombinant P18 (IP) with rMCL1 (IB) with and without MCL1 inhibitor, Fig. 2c): suppressed the ability of P18 to pull-down MCL1

CDLARLYGRNEVVSLAQANGA (not fully specified (C-terminus)) [P18 rBH3 peptide with alanine substitution of M156]
IC50 ([2]; both partners purified): > 30000 nM

B1: P16: recombinant P16 [Uniprot: P42771] (residues 1–156), negative control (protein)
chain: MEPAAGSSMEPSADWLATAAARGRVEEVRALLEAGALPNAPNSYGRRPIQVMMMGSARVAELLLLHGAEPNCADPATLTRPVHDAAREGFLDTLVVLHRAGARLDVRDAWGRLPVDLAEELGHRDVARYLRAAAGGTRGSNHARIDAAEGPSDIPD
modifications: left off: His6, N-terminal, state not stated
notes: recombinant P16 [Uniprot: P42771]; (residues 1–156), negative control
pull-down of recombinant MCL1 (recombinant MCL1 (rMCL1)): showed no interaction

B2: P18 21-mer peptide (P18 residues 141-161) (peptide, UniProt P42773 141-161, looked up)
peptide: CDLARLYGRNEVVSLMQANGA
notes: Human P18 (P18INK4C), residues 141-161, holding the rBH3 motif (150-161); Made on rink amide MBHA resin, so the C-terminus is probably an amide (surmised); also called P18x peptides; source: synthetic peptide
IC50 ([2]; both partners purified): 778 nM

B3: ANK1–4: P18 residues 1–140, truncation that removes the rBH3-containing fifth ankyrin repeat (protein)
chain: MAEPWGNELASAAARGDLEQLTSLLQNNVNVNAQNGFGRTALQVMKLGNPEIARRLLLRGANPDLKDRTGFAVIHDAARAGFLDTLQTLLEFQADVNIEDNEGNLPLHLAAKEGHLRVVEFLVKHTASNVGHRNHKGDTA
modifications: left off: His6, N-terminal, state not stated
notes: P18 residues 1–140, truncation that removes the rBH3-containing fifth ankyrin repeat
pull-down of recombinant MCL1 (recombinant MCL1 (rMCL1)): showed no interaction

CDLARLYGRNAVVSLMQANGA (not fully specified (C-terminus)) [P18 rBH3 peptide with alanine substitution of E151]
IC50 ([2]; both partners purified): > 30000 nM

B4: P18 protein (human P18INK4C residues 1-168), recombinant (natural protein, UniProt P42773 1-168, looked up)
chain: MAEPWGNELASAAARGDLEQLTSLLQNNVNVNAQNGFGRTALQVMKLGNPEIARRLLLRGANPDLKDRTGFAVIHDAARAGFLDTLQTLLEFQADVNIEDNEGNLPLHLAAKEGHLRVVEFLVKHTASNVGHRNHKGDTACDLARLYGRNEVVSLMQANGAGGATNLQ
notes: Human P18 (P18INK4C, CDKN2C), residues 1-168, called full-length P18 protein in the results; The purification of this protein is not described; only that of His6-MCL1 is; also called CDKN2C; full-length P18 protein; source: E. coli BL21(DE3), recombinant
IC50 ([2]; both partners purified): 113 nM

B5: P18^INK4C: human P18 [Uniprot: P42773] (residues 1–168), His6-tagged recombinant protein (protein)
chain: MAEPWGNELASAAARGDLEQLTSLLQNNVNVNAQNGFGRTALQVMKLGNPEIARRLLLRGANPDLKDRTGFAVIHDAARAGFLDTLQTLLEFQADVNIEDNEGNLPLHLAAKEGHLRVVEFLVKHTASNVGHRNHKGDTACDLARLYGRNEVVSLMQANGAGGATNLQ
modifications: left off: His6, N-terminal, state not stated
notes: human P18 [Uniprot: P42773]; (residues 1–168), His6-tagged recombinant protein
pull-down of recombinant MCL1 (recombinant MCL1 (rMCL1)): successfully pulled down MCL1

B6: Chimeric protein of P16-ANK1-3 and P18-ANK4-5 (P16 residues 1-113 and P18 residues 106-168) (other, human, UniProt P42771 1-113, looked up)
chain: MEPAAGSSMEPSADWLATAAARGRVEEVRALLEAGALPNAPNSYGRRPIQVMMMGSARVAELLLLHGAEPNCADPATLTRPVHDAAREGFLDTLVVLHRAGARLDVRDAWGRLPLHLAAKEGHLRVVEFLVKHTASNVGHRNHKGDTACDLARLYGRNEVVSLMQANGAGGATNLQ
notes: Human P18 (P18INK4C), residues 106-168 (ankyrin repeats 4-5 with the rBH3 motif); also called AC; chimera; source: E. coli BL21(DE3), recombinant
binding result [3]: binds

B7: chimera: chimeric protein consisting of P16-ANK1–3 and P18-ANK4–5 (P16 residues 1–113 and P18 residues 106–168) (protein)
chain: MEPAAGSSMEPSADWLATAAARGRVEEVRALLEAGALPNAPNSYGRRPIQVMMMGSARVAELLLLHGAEPNCADPATLTRPVHDAAREGFLDTLVVLHRAGARLDVRDAWGRLPLHLAAKEGHLRVVEFLVKHTASNVGHRNHKGDTACDLARLYGRNEVVSLMQANGAGGATNLQ
modifications: left off: His6, N-terminal, state not stated
pull-down of recombinant MCL1 (recombinant MCL1 (rMCL1)): gained the ability to pulldown recombinant MCL1

B8: P18-ANK4-5 (P18 residues 106-168) (domain or fragment, human, UniProt P42773 106-168, looked up)
chain: PLHLAAKEGHLRVVEFLVKHTASNVGHRNHKGDTACDLARLYGRNEVVSLMQANGAGGATNLQ
notes: Human P18 (P18INK4C), residues 106-168: ankyrin repeats 4 and 5, with the rBH3 motif; also called A4-5; source: E. coli BL21(DE3), recombinant
binding result [3]: binds

B9: ANK4–5: P18 residues 106–168, retains the rBH3 domain and ankyrin repeat 4 (protein)
chain: PLHLAAKEGHLRVVEFLVKHTASNVGHRNHKGDTACDLARLYGRNEVVSLMQANGAGGATNLQ
modifications: left off: His6, N-terminal, state not stated
pull-down of recombinant MCL1 (recombinant MCL1 (rMCL1)): successfully pulled down MCL1
